{"source": "paper PMC5007788", "about": "“Heat Shock Factor 1 Is a Substrate for p38 Mitogen-Activated Protein Kinases” (Molecular and Cellular Biology, 2016)", "binders": {"B1": {"name": "Heat shock factor 1 (HSF1), endogenous in MDA-MB-231 cells, Q00613 1-529 (natural protein)", "chain": "MDLPVGPGAAGPSNVPAFLTKLWTLVSDPDTDALICWSPSGNSFHVFDQGQFAKEVLPKYFKHNNMASFVRQLNMYGFRKVVHIEQGGLVKPERDDTEFQHPCFLRGQEQLLENIKRKVTSVSTLKSEDIKIRQDSVTKLLTDVQLMKGKQECMDSKLLAMKHENEALWREVASLRQKHAQQQKVVNKLIQFLISLVQSNRILGVKRKIPLMLNDSGSAHSMPKYSRQFSLEHVHGSGPYSAPSPAYSSSSLYAPDAVASSGPIISDITELAPASPMASPGGSIDERPLSSSPLVRVKEEPPSPPQSPRVEEASPGRPSSVDTLLSPTALIDSILRESEPAPASVTALTDARGHTDTEGRPPSPPPTSTPEKCLSVACLDKNELSDHLDAMDSNLDNLQTMLSSHGFSVDTSALLDLFSPSVTVPDMSLPDLDSSLASIQELLSPQEPPRPPEAENSSPDSGKQLVHYTAQPLFLLDPGSVDTGSNDLPVLFELGEGSYFSEGDGFAEDPTISLLTGSEPPKAKDPTVS"}, "B2": {"name": "Recombinant hexahistidine-tagged mutant S326A HSF1 (natural protein, human, UniProt Q00613 1-529, looked up)", "chain": "B1 chain with S326A, P448L", "notes": "Heat shock factor 1, human, full-length cDNA from Addgene plasmid 32537 (P to L at position 448) in pet15b, with S326A made by site-directed mutagenesis; Made from the pet15b plasmid of m3; also called S326A mutant HSF1; HSF1 S326A; source: E. coli BL21(DE3)pLysS, purified (nickel agarose resin, dialysis)"}, "B3": {"name": "Recombinant hexahistidine-tagged HSF1 wild-type (natural protein, human, UniProt Q00613 1-529, looked up)", "chain": "B1 chain with P448L", "notes": "subcloned into pet15b (NdeI, XhoI); The vector pet15b is named; also called His-HSF1; HSF1 WT; source: E. coli BL21(DE3)pLysS, purified (nickel agarose resin, dialysis)"}}, "key": {"[1]": {"molecular_target": "T1, Heat shock factor 1 (HSF1), endogenous in MDA-MB-231 cells (human (endogenous in MDA-MB-231)), Q00613", "T1 chain": "B1 chain", "test": "cross-linking; MDA-MB-231 cells treated with 20 uM PEITC for 3 h, fixed with 0.4% (wt/vol) paraformaldehyde in PBS, quenched with glycine; nuclear and cytoplasmic fractions; SDS-PAGE (10% gel), blot with anti-HSF1", "settings": "remark: other sources report otherwise"}, "[2]": {"molecular_target": "the molecule itself", "test": "gel electrophoresis (NuPAGE NoVex Bis-Tris 10% gel); purified recombinant hexahistidine-tagged HSF1 (WT and S326A) run on NuPAGE; dimeric and trimeric species formed spontaneously beside the major band"}}, "note": "Residue numbers refer to the chain shown, from its start. Numbers in names are those of the source. Where “and” joins values, the source holds several entries; their conditions need not be identical. Equal entries are not always repeated."}
{"binder": "B1", "values": [{"measurement": "stoichiometry N", "setting": "[1]", "result": "2 and 3"}]}
{"binder": "B2", "values": [{"measurement": "stoichiometry N", "setting": "[2]", "result": "2 and 3"}]}
{"binder": "B3", "values": [{"measurement": "stoichiometry N", "setting": "[2]", "result": "2 and 3"}]}
